This data set deals with the molecule itself. In words: SDS-PAGE.

For orientation: stoichiometry N means the number of molecules, sites or subunits per partner or assembly.

B1: MBP-ΔN597 (human DISC1 amino acids 326-597 fused to maltose-binding protein) (domain or fragment, UniProt Q9NRI5 326-597, looked up)
chain: WDTLLRKWEPVLRDCLLRNRRQMEVISLRLKLQKLQEDAVENDDYDKAETLQQRLEDLEQEKISLHFQLPSRQPALSSFLGHLAAQVQAALRRGATQQASGDDTHTPLRMEPRLLEPTAQDSLHVSITRRDWLLQEKQQLQKEIEALQARMFVLEAKDQQLRREIEEQEQQLQWQGCDLTPLVGQLSLGQLQEVSKALQDTLASAGQIPFHAEPPETIRSLQERIKSLNLSLKEITTKVCMSEKFCSTLRKKVNDIETQLPALLEAKMHAIS
Turning to B1, the “stoichiometry N” value is 2.
